Test results published in publication PMC7504384, “Insight into the Folding and Dimerization Mechanisms of the N-Terminal Domain from Human TDP-43” (International Journal of Molecular Sciences, 2020).

Columns and labels:
[1] = target: the molecule itself; assay: dynamic light scattering; 0.5 mg/mL (58.7 µM) NTD in 5 mM sodium phosphate buffer, 50 mM NaCl, 1 mM DTT, pH 7.4, 25 °C, no urea; hydrodynamic diameter compared with values calculated for monomer and dimer
[2] = target: the molecule itself; assay: SEC; analytical gel filtration, Superdex 200 Increase 10/300 GL, 4 °C, 5 mM phosphate buffer, 50 mM NaCl, pH 7.4, without DTT; 100 µL of 0.5 mg/mL (58.7 µM) NTD loaded; masses from a calibration curve; also run with 150 mM NaCl without DTT

B1: N-terminal domain of human TDP-43 (NTD_(1–77)) (domain or fragment, UniProt Q13148 1-77, looked up)
chain: MSEYIRVTEDENDEPIEIPSEDDGTVLLSTVTAQFPGACGLRYRNPVSQCMRGVRLVEGILHAPDAGWGNLVYVVNY
notes: devoid of any tag; calculated mass 8.53 kDa; Cloning, expression and purification are told only in the Supplementary Materials; also called NTD TDP-43; wild-type protein; source: purified as described in the Supplementary Materials (>95% pure)
**Q.** What does the source list for B1?
**A.** stoichiometry N [1]: 2; stoichiometry N [2]: 4
